The assay addresses recombinant PR1/HLA-A*0201 monomer (human). Nature of the assay: SPR (Biacore), antibody captured, peptide/HLA-A2 as analyte.

As a reminder, the Kd is the equilibrium constant for the complex coming apart. With “BB7.2 murine monoclonal antibody (HLA-A*0201 allele-specific mouse IgG2a)”, the Kd is 0.162 µM.

The values are drawn from patent US20150191546A1.
